{"source": "patent US20210246195A1", "about": "(CZ BIOHUB SF, published 2021)", "binders": {"B1": {"name": "PA15P1D05 (antibody, human IgG1, V domains shown)", "VH": "QVHLVESGGGVVQPGRSLGLSCVASGFTFNYYAIHWVRQAPGKGLEWVAVVSFDGNIIYYADSVKGRFNISRDNSKNTVNLQMNSLRPDDTAVYYCVRDGEYCSGGNCYWGDFDHWGQGSLVTVSP", "VL": "EIVLTQSPATLSLSPGERATLSCRASQSISSEYLTWFQQKPGQAPRLLIYGAFNRATGIPDRFSGSGSGTDFTLTISSLEPEDFAVYYCQQYANWWTFGQGTKVEIK", "notes": "human IgG1; also called CF3 IgE PB antibody"}, "B2": {"name": "PA15P1D12 (antibody, human IgG1, V domains shown)", "VH": "B1 VH with V23A, P88A, H115Y, S120T", "VL": "B1 VL with A9G", "notes": "human IgG1; also called CF3 IgG4 PB antibody"}, "B3": {"name": "1003320107_F3 (antibody, V domains shown)", "VH": "QVQLQESGPGLVKPSETLSLSCNVSGGSIRGHYWSWIRQSPGKRLEWLGYIYQSGYTKYNPSLKSRVSISLDTSKNKFSLNLKSVTTADTAVYYCAGRVAERGGDQFDFWGQGTLVTVSS", "VL": "SYELTQSPSLSVSPGQTASITCSGENLGEKHASWYQQKSGQSPVLVIYQDTKRPAGIPERFSGSNSGSTATLTISGTQPMDEADYFCQAWDANTANVIFGGGTMLTVL", "notes": "also called Clone 1003320107_F3"}, "B4": {"name": "1003320107_C5 (antibody, V domains shown)", "VH": "QVQLQESGLGLVKPSGTLSLTCAVSGGPMNSSYWWSWVRQSPGGGLEWIGQISHYTNTKYNPSFKNRVSISIDKSKNEFSLRLTYVTGADTGVYYCVGERDWKDPNWFDPWGQGRLVTVSS", "VL": "QSVLTQPPSVSGAPGQRVTISCTGSNSNIGAGQDVHWYQHFPGTAPKLVIYGNSNRPSGVPDRFSGSKSGTSASLAISGLQADDEADYYCQSYDKSLSSSLFGGGTKLTVL", "notes": "also called Clone 1003320107_C5"}, "B5": {"name": "PA13P1H08 (antibody, human IgG1, V domains shown)", "VH": "QVQLVNSGGGVVQPGRSLRLSCVASGFTFSTFGIHWVRQAPGKGLEWVAVISNDGEKSESADSVKGRFTPSRDNSKNTVYLQMNNLRVEDTAVYYCAKVLDYSRYSYYYGMDVWGQGTTVIVSS", "VL": "EIVLTQSPGTLSLSPGGRGTLSCRTSQTINNAHLAWYQHKPGQAPRLLIYGSSERATGVPDRFSGSGSGSDFTLTISSLEAEDFAVYYCQHYGRSPPYTFGPGTKLDIK", "notes": "human IgG1, kappa; also called Clone PA13P1H08; N-N"}, "B6": {"name": "PA13P1H08 variant N-R (antibody, V domains shown)", "VH": "B5 VH", "VL": "not shown", "notes": "human IgG1, kappa; also called native heavy chain, reverted light chain"}, "B7": {"name": "PA13P1H08 variant R-R (antibody, V domains shown)", "VH": "QVQLVESGGGVVQPGRSLRLSCAASGFTFSSYGMHWVRQAPGKGLEWVAVISYDGSNKYYADSVKGRFTISRDNSKNTLYLQMNSLRAEDTAVYYCAKVLDYSNYYYYYGMDVWGQGTTVTVSS", "VL": "not shown", "notes": "human IgG1, kappa; also called both chains reverted to the inferred naive rearrangement"}}, "key": {"[1]": {"target": "T1, Ara h 1 (purified natural peanut allergen) (Arachis hypogaea, UniProt P43238 26-626)", "T1 construct": "mature; bought natural protein; also called natural Ara h 1; NA-AH1-1", "T1 sequence (looked up)": "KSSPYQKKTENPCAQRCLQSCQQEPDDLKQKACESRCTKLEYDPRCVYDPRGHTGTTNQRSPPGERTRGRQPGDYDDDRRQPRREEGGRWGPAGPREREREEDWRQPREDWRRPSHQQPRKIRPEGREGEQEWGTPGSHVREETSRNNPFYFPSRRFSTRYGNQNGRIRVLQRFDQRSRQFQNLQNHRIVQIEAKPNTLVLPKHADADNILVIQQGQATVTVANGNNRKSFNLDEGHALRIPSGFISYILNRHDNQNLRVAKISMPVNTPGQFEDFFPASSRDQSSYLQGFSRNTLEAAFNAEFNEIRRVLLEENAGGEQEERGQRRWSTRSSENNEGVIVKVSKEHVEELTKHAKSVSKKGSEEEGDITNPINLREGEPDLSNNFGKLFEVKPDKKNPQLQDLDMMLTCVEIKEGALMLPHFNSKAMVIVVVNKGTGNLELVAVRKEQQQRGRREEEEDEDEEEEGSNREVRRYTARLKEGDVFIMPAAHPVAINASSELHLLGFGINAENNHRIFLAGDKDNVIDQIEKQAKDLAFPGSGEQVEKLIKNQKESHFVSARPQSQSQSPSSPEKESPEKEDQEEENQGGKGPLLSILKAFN", "test": "indirect ELISA"}, "[2]": {"target": "T2, Ara h 3 (purified natural peanut allergen) (Arachis hypogaea)", "T2 construct": "mature; bought natural protein; also called natural Ara h 3; NA-AH3-1", "test": "BLI, antibody on anti-human IgG Fc sensors, Ara h 3 as analyte, top 512 nM"}, "BSA [3]": {"target": "T3, BSA (UniProt P02769 25-607)", "T3 construct": "also called bovine serum albumin; immobilized BSA", "T3 sequence (P02769 25-607 limits assumed)": "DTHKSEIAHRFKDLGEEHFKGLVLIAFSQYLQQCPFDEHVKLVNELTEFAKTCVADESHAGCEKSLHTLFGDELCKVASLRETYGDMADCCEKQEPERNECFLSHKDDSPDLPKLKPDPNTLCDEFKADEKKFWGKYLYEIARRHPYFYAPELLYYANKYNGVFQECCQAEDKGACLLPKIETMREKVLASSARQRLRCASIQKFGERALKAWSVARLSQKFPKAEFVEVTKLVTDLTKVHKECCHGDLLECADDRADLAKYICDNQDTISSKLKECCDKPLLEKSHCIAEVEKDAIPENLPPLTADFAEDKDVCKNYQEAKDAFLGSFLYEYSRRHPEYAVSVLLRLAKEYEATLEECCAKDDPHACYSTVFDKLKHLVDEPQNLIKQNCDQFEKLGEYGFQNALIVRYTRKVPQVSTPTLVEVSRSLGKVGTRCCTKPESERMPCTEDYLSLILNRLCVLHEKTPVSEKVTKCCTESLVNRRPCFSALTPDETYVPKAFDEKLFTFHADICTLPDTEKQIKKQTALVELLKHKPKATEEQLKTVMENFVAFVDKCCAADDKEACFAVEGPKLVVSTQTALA", "test": "indirect ELISA, OD heat map"}, "[4]": {"target": "T4, purified recombinant allergen Aspergillus fumigatus 1 (rAsp f 1) (Aspergillus fumigatus, UniProt P67875 28-176)", "T4 sequence": "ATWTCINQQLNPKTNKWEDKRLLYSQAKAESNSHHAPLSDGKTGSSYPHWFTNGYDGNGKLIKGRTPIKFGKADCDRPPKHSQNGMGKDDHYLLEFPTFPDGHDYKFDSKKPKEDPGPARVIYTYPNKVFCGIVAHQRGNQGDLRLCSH", "test": "indirect ELISA (FIG. 19)"}, "[5]": {"target": "T2, Ara h 3 (purified natural peanut …)", "test": "BLI, antibody on anti-human IgG Fc sensors, Ara h 3 as analyte, top 16 nM"}, "BSA [6]": {"target": "T3, BSA", "test": "indirect ELISA, OD heat map", "remark": "listed apart in the source"}, "[7]": {"target": "T2, Ara h 3 (purified natural peanut …)", "test": "BLI, antibody on anti-human IgG Fc sensors, Ara h 3 as analyte, top 64 nM"}, "[8]": {"target": "T1, Ara h 1 (purified natural peanut …)", "test": "indirect ELISA, OD heat map"}, "[9]": {"target": "T2, Ara h 3 (purified natural peanut …)", "test": "BLI, antibody on anti-human IgG Fc sensors, Ara h 3 as analyte, top 128 nM"}, "[10]": {"target": "T2, Ara h 3 (purified natural peanut …)", "test": "BLI, scatter plot of KDs; the diamond lies on the axis line labelled >10^-7"}}, "note": "Substitutions are numbered along the chain they refer to. Where two headings read alike, the source gives them in different places.", "data": [{"binder": "B1", "values": [{"measurement": "binding result", "setting": "[1]", "result": "no binding"}, {"measurement": "Kd", "setting": "[2]", "result": 2, "unit": "nM"}]}, {"binder": "B2", "values": [{"measurement": "binding result", "setting": "[1]", "result": "no binding"}, {"measurement": "Kd", "setting": "[2]", "result": 1.1, "unit": "nM"}]}, {"binder": "B3", "values": [{"measurement": "binding result", "setting": "BSA [3]", "result": "no binding (tested: 2 ng/µL)"}, {"measurement": "binding result", "setting": "[4]", "result": "binds"}]}, {"binder": "B4", "values": [{"measurement": "binding result", "setting": "BSA [3]", "result": "no binding (tested: 2 ng/µL)"}, {"measurement": "binding result", "setting": "[4]", "result": "binds"}]}, {"binder": "B5", "values": [{"measurement": "Kd", "setting": "[5]", "result": 0.3, "unit": "nM"}, {"measurement": "binding result", "setting": "BSA [6]", "result": "no binding (tested: 2 ng/µL)"}]}, {"binder": "B6", "values": [{"measurement": "Kd", "setting": "[7]", "result": 7.4, "unit": "nM"}, {"measurement": "binding result", "setting": "BSA [6]", "result": "no binding (tested: 2 ng/µL)"}, {"measurement": "binding result", "setting": "[8]", "result": "no binding (tested: 2 ng/µL)"}]}, {"binder": "B7", "values": [{"measurement": "Kd", "setting": "[9]", "result": "> 100", "unit": "nM"}, {"measurement": "Kd", "setting": "[10]", "result": "> 100", "unit": "nM"}, {"measurement": "binding result", "setting": "BSA [6]", "result": "no binding (tested: 2 ng/µL)"}, {"measurement": "binding result", "setting": "[8]", "result": "no binding (tested: 2 ng/µL)"}]}]}
